Laboratory results published in the nanobody polyreactivity screen of Harvey et al. (2022).

Assay: yeast display, Sf9 membrane polyspecificity reagent, FACS + sequencing; frameworks hold sequencing errors
Procedure, shortened: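 Nanobodies from a synthetic yeast display library (Saccharomyces cerevisiae BJ5465), induced 36–48 hours with galactose, were stained 1 hour at 4 °C with 10% biotinylated, detergent-solubilized Sf9 membrane reagent, enriched on streptavidin microbeads, then FACS-sorted. Anti-HA (expression) and streptavidin (reagent binding) fluorescence set low and high (top ~1%) gates. Polyreactivity labels come from the gate of origin. Genes were colony-PCR amplified, MiSeq 2 × 250 sequenced and filtered by CDR length.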

Row | Sequence | polyreactivity (PSR sort gate)
1 | QVQLVESGGGLVQAGGSLRLSCAASGSNFKTYVMGWSRQAPGKERELVAAITSSGGRTYYADSVKGRFTISRDNAKNSVYLQMNSLKPEDTAVYYCNTAPRWVGRNDYWGQGTQVTVSS | high polyreactivity
2 | QVQLVESGGGLVQAGGSLRLSCADSARTFYYNTKGWYRQAPGKERELVASISGSGGRTYYADSVKGRFTISRDNAKNTVYLQMNSLKPEDTAVYYFAAGSIRYRFPFGYDYWGQGTQVTLSS | high polyreactivity
3 | QVQLVESGGGLVQAGGSLRLSCAASGSTFRYYAMGWYSQAPGKERELVASISSGGSTNYADSVKGRFTISRDNAKNTVYLQMNSLKPEDTAVYYCNADSWTVNRRYYYYRYEYWGQGTQVTVSS | low polyreactivity
4 | QVQLVESGGGLVQAGGSLRLSCAASGRTFASYAMGWYRQAPGKERELVAGITSGGNTYYADSVKGRFTISRDNAKNTVYLQMNSLKPEDTAVYYCAADRVYLGLFRYEYWGQGTQVTVSS | high polyreactivity
5 | QVQLVESGGGLVQAGGSLRLSCAASGRTLPVYAMGWYRQAPGKERELVAAITYSGGSTSYADYVKGRFTISRDNAKNTVYLQMNTLKPDDTAVYYCAAGYRYSEYYYWGQGTQVTVSS | low polyreactivity
6 | QVQLVESGGGLVQAGGSLRLSCAASGYIFTYTMGWYRQAPGKERELVAAISKSGGSTYYADSVKGRFTLSRDNAKNTVYLQMNSLKPEDTAVYYCARRGRYYLYTDDYDYWGQGTQVTVSS | high polyreactivity
7 | QDQLVESGGGLVQAGGSLRLSCAASGITFKFYAMGWYRQAPGKERELVAAISWSGGSTYYADSVKGRFTISRDNAKNTVYLQMNSLKPEDTAVYYCAAYTGWIYHTRYRRDYWGQGTQVTVSS | high polyreactivity
8 | QVQLVESGGGLVQAGGSLRLSCAASGRTFPYNVMGWYRQAPRKERELVARITRGGSTDYADSVKGRFTISRDNAKNTVYLLMNSLKPEDTAVYYCAAAIGHFERFYWGQGTQVTVSS | low polyreactivity
9 | QVQLVESGGGLVQAGGSLRLSCAASGYTFKTYAMGWYIQAPGKERELVAAISGSGGSTYYADSVMGRFTISRDNAKNTVYLQLKSLKPEDTEVYYCAATNWWGTEYDYWGQGTQVTVSS | high polyreactivity
10 | QVQLVESGGGLVQAGGSLRLSCAASGSTFDFYAMAWYRQAPGKERELVADITSGGRTSYADSVKGRFTISRDNAKNTVYLQMNSLKPEDTAVYYCAALTRWYAWYDYWGQGTQVTVSS | high polyreactivity
11 | QVQLEESGGGLVQAGGSLRLSCAASGNTSPVNAMGWYRQAPGKERELVAAITQSGGSTYYADSLKGRFTISRDNAKITVYFQMNSLKPQDTAVYYCAADVLGPQYWWYDYWGQGTQVTVSS | low polyreactivity
12 | QVQLVESGGGLVQAGGSLRLSCGATGTTFYYYAMGWYRQAPGKERELVPGINTSGGNTYYADSVKGRFTISRDNAKNTVYLQMNSLKPEDTAVYYCAVEGGSLHYAWYLWGYRSGGEYWGQGTQVTVSS | high polyreactivity
13 | QVQLVESGGGLVQAGGSLRLSCAASGSTFVPYAMGWYRQAPGKERELVAAITTSGGNTYYADSVKGRFTISRDNAKNTVYLQMNSLKPEDTAVYYCAADTYRRFDYWGQGTQVTVSS | low polyreactivity
14 | QVQLVESGGGLVQAGGSLRLSCAASGLILYTYAMGWYRQAPGKERELVAAINSGGRTYYADSVKGRFTISRDNAKNTVYLQMNSLKPEDTAVYYCAADYGSRVRGFNYWGQGTQVTVSS | low polyreactivity
15 | QVHLVESGGGLVQAGGSLRLSCAASGFIFRYYAMGWYRQAPGKEREMVAAISWSGGSTYYADSVKGRFTISRDNAKNTVYLQMNSLKPEDTAVYYCAADRYAILFYAEDYWGQGTQVTVSS | low polyreactivity
16 | QVQLVESGGGLVQAGGSLRLSCAASGRTFTYYAMGWYRRAPGKERELVAAIRWTGDSTYYADSVKGRFTISRDNAKNTVYLQMNSLKPEHTAVYYCATQARWQYDGGIRWYYYWGQGTQVTVSS | high polyreactivity
17 | QVQLVESGGGLVQAGGSLRLSCADSGSIFGYNAMGWYRQAPGKEREFVAAISWSGGRTYYADSVKGRFTISRDNAKNTVYLQMNSLKPEDTAVYYCAAPSRPAPRFDYWGQGTQVTVSS | low polyreactivity
18 | QVQLVESGGGLVQAGGSLRLSCAASGFTFSFYSMGWSRQAPGKERELVAAITSRGTSTYYADSVKGRFTISRDNAKNTVYLQMNSLKPEDTAVYYCAKLLPRGQWPYDYWGQGTQVTVSS | high polyreactivity
19 | QVQLVESGGGLVQAGGSLRLSCAASGRIFGCYAMGWYRQAPGKERELVAAISSGGNTKYADSVKGRFTISRDNAKNTVYLQMNSLKPEDTAVYYCAAKFAQPDYRYDYWGQGTQVTVSS | high polyreactivity
20 | QVQLVESGGGLVQAGGSLRYICAASGFTFRPKVMGWYRQAHGKERELVAAISGSGGSTYYADSVKGRFTISRDNAKNTVYLQMNSLKPEDTAVYYSKDFPAFYDFGYWGQGTQVTVSS | high polyreactivity
21 | QVQLVESGGGLVQAGGSLRLSCAASGRTFYRYAMGWYRQAPGKERELVATITLRGGRTYYADSVKGRFTISRDTAKNTVYLQMNSLKPEDTAVYYCAKYHWRLSFSRYPYDYWGQGTQVTVSS | high polyreactivity
22 | QVQLVESGGGLVQAGGSLRLSCAASGRIFPAYVMGWYRQAPVKERELVATIDNGGGTYYADSVKGRFTISRDNAKNTVYLQMNSLKPEDTAVYYCARDRHVRWGLKMDYWGLGTQVTVSS | low polyreactivity

Row | Sequence | polyreactivity (PSR sort gate)
23 | QVQLVESGGGLVQAGGSLRLSCAASGFTLYSYAMGWYRQAPGKERELVARISRSGGRTYYADSVKGRFTISRDNAKNTVYLQMNSLKPEDTAVYYGNARSLYYSYDYWGQGTQVTVSS | high polyreactivity
24 | QVQLVESGGGLVQAGGSLRLSCAASGLTFGDYTMGWYRQAPGKERELVAAITGSGASTYYADSVKGRFTISRDNAQNTGYLQMNSLKPEDTAVYYCDAERTPSYRAYDYWGQGTQVTVSS | low polyreactivity
25 | QVQLVESGGGLVQAGGSLRLSCAASGSTSVTNAMGWYRQAPGKEREFVATINYSGTSTYYADSVKGRFTISRDNAKNTVYLLMNSLKPEDTAVYYCNKTFVRGVHGVYLPITSYDYWAQGTQVTVSS | low polyreactivity
26 | QVHLVDSRGVLVQAGGSLRLSCAASGRTFFHYAMGWYRQAPGKERELVAAITYRGTSTYYADSVKARFTISRDYAKNTVYLQMNSLKPEATAVYYCNAYTTRGGWSYRGDSWGQGTQVTVSS | high polyreactivity
27 | QVQLVESGGGLVQAGGSLRLSCAASGGIFWYYAMGWYRQAPGKERELVAGISRGGGTYYADSVKGRFTISRDNAKNTVYLQMNSLKPEDTAVYYCAVDGRYAYAYEYWGQGTQVTVSS | low polyreactivity
28 | QVQLVESGGGLVQAGGSLRLSCAASGRIFGAYAMGWYRQAPGKERELVATITKRGGSTFYADSVKGRFTISRDNAKNTVYLQMNSLKPEDTAVYYCAVSSFYRGRYDYWGQGTQVTVSS | high polyreactivity
29 | QVQLVESGGGLVQAGGSLRLSCAASGSIFPRNAMGWYRQAPGKERELVASINSGGSTKYADSVKGRFTISRDNAKNTLYLQMNSLKPEDTAVYYCAAVRPWWRNKPQWPRYDYCGQGTQVTVSS | low polyreactivity
30 | QVQLVESGGGLVQAGGSLRLSCAASGSIFTLYDMGWYRQAPGKERELVAAITSGGSTDYADSVKGRFTISRDNAKNTVYFQMNSLKPEDTAVYYCNAEAYPYWYRGASREYDYWGQGTQVTVSS | low polyreactivity
31 | QVQLVESGGGLVQARGSLRLSCAASGSTFYYYAMGWYRQAPGKEREFVAAISWTGGTTYYADSVKGRFTISRDIAKNTVYLQMNSLKPEDTAVYYCNADPWWDSDWGYDYWGQGTQVTVSS | low polyreactivity
32 | QVQLVESGGGLVQAGGSLRLSCAASGIIFRPYTMGWYRQAPGKERELVAAISQSGGRTYYADSVKGRFTISRDNAKNTVYLQMNSLKPEDTAVYYCNVLGSYSYYPWPIPGYDYWGQGTQVTVSS | high polyreactivity
33 | QVQLHESGGGLVQAGGGLRLSCAASGSISSTGFMGWYRQPPGKEREPVAAIAPGTTTYYADSVKGRFTISRDNAKNTVYLQMISLRPEDTAVYYCAVFTDNRVAFLYWGQGTQVTVSS | low polyreactivity
34 | QVQLVESGGGLFQAGGSLRLSCAASGRTFRYYVMGWYRQAPGKERELVAAISKSGASTYYADSVKGRFTISRDNAKYTVYSQMNSLKPEDTAVYYCAAGGVYSIYRTSRVGYDYWGQGTQVTVSS | high polyreactivity
35 | QVQLVESGGGLVQAGGSLRLSCAASGFTFISNAMGWYRQAPGKERELVAAISSAGGRTYYADSVKGRFTISRATAKITVYLQMNTLKPEDTEVYYSNADRSLLYSRKIEYDSWGQGTQVTVSS | low polyreactivity
36 | PVQLVESGGGLVQAGGSLRLSCAASGNAMGWYRQAPGKERELVASINRSGGRTYYADSVKGRFTISRDNAKNTVYLQMNSLKPEDTAVYYCAARPHYDSDYWGQGTQVTVSS | low polyreactivity
37 | QVQLVESGGGLVQAGGSLRLSCAASGRILHANAMGWYRQAPGKEREFVAAISVSGVSTYYADSVKGRFTISRDNAKNTVYLQMNSLKPEDTAVYYCNAETYSWYDYWGQGTQVTVSS | high polyreactivity
38 | QVQLVESGGGLVQAGGSLRLSCAASGSTFYAYAMGWYRQEPGKERELVAAINSVGSTYYADSVKGRFTISRDNAKNTVYLQMNSLKPEDTAVYYCARGVDYPTSQPPYFRHDYWGQGTQVTVSS | low polyreactivity
39 | QVQLVESGGGLVQAGGSLRLSCAASGIIFRFYAMGWYRQAPGKERELVAAIRTSGGSTYYADSVKGRFTISRDNAKNTVYLQMNSLKPEDTAGYYCAARFYNGWTKHNYWGQGTQVTVSS | high polyreactivity
40 | QVQLVESGGGLVQAGGSLRLSCAASGSTFGSYAMGWYRQAPGKERELVAAISTRGGRTRYADSVKVRFTISRDNAKNTVYLQMNSLKPQDTAVDYCATRIGSRVYNVSGYYRKDDYWGQGTQVTVSS | high polyreactivity
41 | QVQLVESGGGLVQAGGSLRLSCAASGSTFWGYAMGWYRQAPGKERELVAAINWIGGSDTFYADSVKGRFTISRDNAKNTVYLQMNSLKPEDTAVYYCAATYYNLPYSWGYDYWGQGTQVTVSS | low polyreactivity
42 | QVQLEESGGGLVQAGGSLRLSCAASGRIFGSYAMGWYRQAAGNERELVAAITRSGGSTYYADSVKGRFTISRDNAKNTVYLQMNSLTPEDTAVYYCAAYFRFSGSAKFGYWGQGTQVTVSS | high polyreactivity
43 | QVQLVESGGGLVQAGGSLRIRCAASGSIFGFYALGWSRHAPGKERELVASISWRGSRTYYADSVKGRFTISRDNAKNTVYLQMNSLKPEDSAVYYCNAVAYVSSPQYVSTATGYGYWGQGTQVTVSS | high polyreactivity
